Laboratory results taken from the nanobody polyreactivity screen of Harvey et al. (2022).

Experiment: yeast display, Sf9 membrane polyspecificity reagent, FACS + sequencing; frameworks hold sequencing errors
Outline: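 Using colony PCR, genes from sorted yeast display clones were amplified, then sequenced on MiSeq at 2 × 250 and filtered by CDR length. The clones had been stained with 10% biotinylated, detergent-solubilized Sf9 membrane reagent for 1 hour at 4 °C and sorted by FACS into low and high (top ~1%) gates on anti-HA and streptavidin fluorescence. Polyreactivity labels come from the gate of origin.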

Row | Sequence | polyreactivity (PSR sort gate)
1 | QVQLVESGGGLVQAGGSLRLSCAASGSIFASYAMGRYRQAPGKERELVAAISRSGGSTYYADSVKGRFTISRDNAKNTVYLQMNSLKPEDTAVYYCATGKIREDDYWGQGTQVTVSS | high polyreactivity
2 | QVQLVESGGGLVQAGGSLRLSCAASGSIFASYAMGWYRQAPGKERELVAAISWNGGSTYYADSVKGRFTISRDNAKNTVYFQMNSLKPEDTAVYYCAAVNRKSQLYGYWGQGTQVTVSS | high polyreactivity
3 | QVQLVESGGGLVQAGGSLRLSCAASGSIFASYAMGWYRQAPGKERELVAAITYSGSRTYYADSVKGRFTISRDTAKNTVYLQMNSLKPEDTAVYYCNADYYWYPYEDDYWGQGTQETVSS | low polyreactivity
4 | QVQLVESGGGLVQAGGSLRLSCAASGSIFASYVMGWYRQAPGKERELVAAISSSGASTYYADSVKGRFTISRDNAKNTVSLQMNSLKPEDTAVSYCATPYYRSYLGDYWGQGTQVTVSS | high polyreactivity
5 | QVQLVESGGGLVQAGGSLRLSCAASGSIFATNAMGWYRQAPGKERELVASISSGGGSTYYADSVKGRFTISRDNAKNTVYLQMNSLKPEDTAVYYCARRIGHGSRPYWLETWRYPYDYWGQGTQVTVSS | low polyreactivity
6 | QVQLVESGGGLVQAGGSLRLSCAASGSIFATNSMGWYRQAPGKERELVAAISRSGASTYYADSVKGRFTISRDNAKNTVYLQMNSLKPEDTAVYYCNKVLYRDAYHSYCFDYWGQGTQVTVSS | high polyreactivity
7 | QVQLVESGGGLVQAGGSLRLSCAASGSIFATYAMGWYRQAPGKERELVAAISSSGSRTYYADSVKGRFTISRDNAKNTVYLQMNSLKPEDTAVYYCAKAYLSPYQYDYWGQGTQVTVSS | high polyreactivity
8 | QVQLVESGGGLVQAGGSLRLSCAASGSIFATYAMGWYRQAPGKERELVAAITSSDGSTNYADSVKGRFTISRDNAKNTVYLQMNSLKPEDTAVYYCATDAPDRTDSDSGFDAGYDYWGQGTQVTLSS | low polyreactivity
9 | QVQLVESGGGLVQAGGSLRLSCAASGSIFAVYAMGWYRQAPGKERELVAAISVSGGRTYYADSVKGRFTISRDNAKNTVYLQMNSLKPEDTAVYYCAARSLSYYRSRAAQYGWGYYYWGQGTQVTVSS | high polyreactivity
10 | QVQLVESGGGLVQAGGSLRLSCAASGSIFAVYAMGWYRQAPGKERELVAASSTDYADSVKGRFTISRDYAKNTVYLQMNSLKPEDTAVYYCANVGFGIPGGFYYWGQGTKVTVSS | low polyreactivity
11 | QVQLVESGGGLVQAGGSLRLSCAASGSIFAVYAMGWYRQAPGKERELVATITGIDTGTYYADSVKGRFTISRDNAKNTVYLQMNSLKPEDTAVYYCAAVWRYRHLRFYYWGQGTQVTVSS | high polyreactivity
12 | QVQLVESGGGLVQAGGSLRLSCAASGSIFAVYTMGWYRQAPGKEREVVAAITKSGGRTYYADSVKGRFTISRDNAKNTVYLQMNSLKPEDTAVYYCARRRTIPYTLVDYDSWGQGTQVTVSS | low polyreactivity
13 | QVQLVESGGGLVQAGGSLRLSCAASGSIFAWYAMGWYRPAPGKEWELVAVITRGGSTNYADSLKGRFTISRDNAKNTVYLQMNSLKPEDTAVKYCAAGSYYSWYPFDYWGQGTQVTVSS | low polyreactivity
14 | QVQLVESGGGLVQAGGSLRLSCAASGSIFAWYAMGWYRQAPGKERELVAAISYRGGRTYYADSVKGRFTISRDNAKNTVYLQMNSLKPEDTAVYYCATDANRGYPSYDYWGQGTQVTVSS | high polyreactivity
15 | QVQLVESGGGLVQAGGSLRLSCAASGSIFAYAMGWYRKAPGKEREFVAAISGGSTYYADSVKGRFTISRDNAKNTVYLQMNSLKPEDTAVYYCAADLDDERYYWGQGTQVTVSS | low polyreactivity
16 | QVQLVESGGGLVQAGGSLRLSCAASGSIFAYKAKGWYRQAPGKEREFVAVITRSDDSTYAYSVKGRFTISRDNAKNPFYLQMNSLKAEDTAVYYCARRWSYLRPSLEYDSWGQGTQVTVSS | low polyreactivity
17 | QVQLVESGGGLVQAGGSLRLSCAASGSIFAYNAKGWYRPAPGKEREFVAVITRSDDSTYADSVKWRFTISRDNAKNTVYLQMNSLKPEDTSVYYCAAQPFVIDCGYRGDYWGQATQVTVSS | low polyreactivity
18 | QVQLVESGGGLVQAGGSLRLSCAASGSIFAYNAMGWYRQAPGKDREFVAAISQSGGRTYYAHSVKGRFTISRDNAKNTVYLQMNILKPEDTAVYYCATDGIRLTRHRDYDYWGQGTQVTVSS | low polyreactivity
19 | QVQLVESGGGLVQAGGSLRLSCAASGSIFAYNAMGWYRQAPGKERELVATINWIGGRTYYADSVKGRFTISRDNAKNTVYLQMNSLKPEDTAVYYCAKERWYLGVSNGHVLVDYDHWGQGTQVTVSS | low polyreactivity
20 | QVQLVESGGGLVQAGGSLRLSCAASGSIFAYYAMGWYRQAPGKEREIVAAISKRGGRTYYADSVKGRFTISRDNAKNTVYLQMNSLKPEDTAVYYCATVGVRTNLNRYGYWGQGTQVTVSS | high polyreactivity
21 | QVQLVESGGGLVQAGGSLRLSCAASGSIFAYYAMGWYRQAPGKERELVAAIDSRGGSTYYADSVKGRFTISRDNAKNTVYLQMNSLKPEDTAVYYCAARLRYPRRGQGDNYWGQGTQVTVSS | low polyreactivity
22 | QVQLVESGGGLVQAGGSLRLSCAASGSIFAYYAMGWYRQAPGKERELVAAISSGGGTYYADSVKGRFTISRDNAKNTVYLQMNSLKPEDTAVYYCARRYRAHYQYLYDYWGQGTQVSVSS | low polyreactivity

Row | Sequence | polyreactivity (PSR sort gate)
23 | QVQLVESGGGLVQAGGSLRLSCAASGSIFAYYAMGWYRQAPGKERELVASISSVGTTKYADSVKGRFTISRDNAKNTVYLQMNSLKPEDTAVYYWATDGYSPAAFDYWGQGTQVTVSS | low polyreactivity
24 | QVQLVESGGGLVQAGGSLRLSCAASGSIFAYYAMGWYRQAPGKESELVADITSSGGITYYADSVKGRFTISRDNAKNTVYLQMISLKPEDTAVYYCNADSWAIGGGSYPYDYWGHGTQVTVSS | low polyreactivity
25 | QVQLVESGGGLVQAGGSLRLSCAASGSIFAYYTMGWYRQAAGNERELVAVINASGGGTYYADSVKGRFTISRDNAKNTVYLQMNSLKPEDTAVYYCAATYSPFDFYYWGQGTQVTVSS | low polyreactivity
26 | QVQLVESGGGLVQAGGSLRLSCAASGSIFAYYTMGWYRQAPGKERELVATISSGDITNYADSVKGRFTISRDNAKNTVYLQMNSLKPEDTAVYYCAAAELTSYYRTFIHQDYDYWGQGTQVTVSS | low polyreactivity
27 | QVQLVESGGGLVQAGGSLRLSCAASGSIFAYYTMGWYRQAPGNERELVAALSRSGGSTNYADSVKGRFTISRDNAKNTVYLQMISLKPEDTAVYYCAVRRYSRRLFGYYYWGQGTQVTVSS | high polyreactivity
28 | QVQLVESGGGLVQAGGSLRLSCAASGSIFCRNAMGWYRQAPGKERELVAAITSGGTTNYADSVKGRFTISRDNAKNSVYLQMNSLKPEDTAVYYCATRASYLRRYDHPHSDVDYWGQGTQVTVSS | low polyreactivity
29 | QVQLVESGGGLVQAGGSLRLSCAASGSIFDANAMGCYRQAPGKERELVAAINWTGGSTYYADSVKGRFTISRDNAKNTVYLQMNSLKPEDTAVYYCAAEWWYPYNPDIYYYWGQGIQVTVSS | high polyreactivity
30 | QVQLVESGGGLVQAGGSLRLSCAASGSIFDANAMGWYRQAPGKEREVVAAISYRGGRTYYADSVKGRFTISRDNAKNTVYLQMNSLKPEDTAVYYCNAGISHRSDNGIDGYYWGQGTQVTVSS | high polyreactivity
31 | QVQLVESGGGLVQAGGSLRLSCAASGSIFDAYAMGWYRQAPGKERELVAAISSGGNTNYADSVKGRFTISRDNAKNTVDLQMNSLKPEDTAVYYCAADFTHPDGLPGFDYWGQGTQVTVSS | low polyreactivity
32 | QVQLVESGGGLVQAGGSLRLSCAASGSIFDDYAMGWYRQAPGKERELVAAISSSGTSTYYADSVKGRFTISRDNAKNTVYLQMNSLKPEDTAVYYCAARSAILKSGYLMDYWGQGTQVTVSS | low polyreactivity
33 | QVQLVESGGGLVQAGGSLRLSCAASGSIFDFNALGWYRQAPGKERELVAAITYSGGRTYYADSVKGRFTISRDNGKYTVYLQMNSMKPEDTAVFYCAVNSFSGHGDYWGQGTQVTVSS | low polyreactivity
34 | QVQLVESGGGLVQAGGSLRLSCAASGSIFDGNAMGWYRQAPGKERELVAAISRRGGSTYYADSVKGRFTISRDKAKNTVYLQMNSLKPEDTAVYYCNAYLSYFDGNYWGQGTQVTVSS | high polyreactivity
35 | QVQLVESGGGLVQAGGSLRLSCAASGSIFDINAMGWYRQAPWKERELVAAISLSAGSTYYADSVKGRFTISRDNSKNTVYFQMNSLYPDDAAVFYCNADGWYGYWGQVTQVTVSS | low polyreactivity
36 | QVQLVESGGGLVQAGGSLRLSCAASGSIFDIYAMGWYRPAPGKERELVAAISLSAGSTYYADSVKGRFTISRDNAKNTVYLQMNSLKPEDTAVYYCNADGWYGYWGQGTQVTVSS | low polyreactivity
37 | QVQLVESGGGLVQAGGSLRLSCAASGSIFDIYAMGWYRQAPGKERELVATITWDGVSTYYADSVKGRFTISRDNAKNTVYLQMNSLKPEDTAVYYCNVVVRYPSAYDYWGQGTQVTVSS | high polyreactivity
38 | QVQLVESGGGLVQAGGSLRLSCAASGSIFDIYGMGWYRKAPGKERELVASISGGAGSTNYADSVKGRFTISRDNAKNTVYLQMNSLKPEDTAVYYCAAEVYVPDYFQHKFDVEYEYWGQGTQVTVSS | low polyreactivity
39 | QVQLVESGGGLVQAGGSLRLSCAASGSIFDLNAMGWYRQAPGKERELGAAISSGGGTYYADSVKGRFTISRDNAKNTVYLQMNSLKPEDTAVYYCNRVTSWTYNYWGQGTQVTVSS | high polyreactivity
40 | QVQLVESGGGLVQAGGSLRLSCAASGSIFDLYAMGWYRQAPGKERELVAAINWTGGSTYYADSVKGRFTISRDNAKNTVYLQMNSLKPEDTAVYYCAASYYYGTEHYDYWGQGTQVTVSS | low polyreactivity
41 | QVQLVESGGGLVQAGGSLRLSCAASGSIFDNAMGWYRQAPGKERELVADITNNGGSTYYADSVKGRFTISRDNAKNTVYLQMNSLKPEDTAVYYCAKRRNYWFSFDYWGQGTQVTVSS | low polyreactivity
42 | QVQLVESGGGLVQAGGSLRLSCAASGSIFDNAMGWYRQAPGKERELVASIDQSGGSTYYADSVKGRFTISRDNAKNTVYLQMNSLKPEDTAVYYCAADSFTGYPYEMDYWGQGTQVTVSS | low polyreactivity
43 | QVQLVESGGGLVQAGGSLRLSCAASGSIFDNNAMGWYRQAPGKERELVAAIRRTSTTYYADSVKGRFTISRDNAKNTVYLQMNSLKPEDTAVYYCAATYGSGYWYPRYYYWGQGTQVTVSS | high polyreactivity
